Test results as given in patent US20190212343A1, “METHODS FOR THE TREATMENT OF DISORDERS RELATED TO PHOSPHORYLATION OF HISTONES” (H. LEE MOFFITT CANCER CENTER AND RESEARCH INSTITUTE, INC., priority 2014, published 2019).

Experiments:
[1] = system: histone H3 Tyr99-phosphorylation (ACK1); assay: Histone H3 Tyr99-phosphorylation in JAR cells (immunoblotting); format: cell-based, human; conditions: EGF alone
Method: (§1) FIGS. 5A-5D show ACK1 deposits pY99-H3 epigenetic marks in SLC6A4 promoter and intron 2. (FIG. 5A) Lysates prepared from JAR cells treated with EGF ligand were subjected to immunoblotting with indicated antibodies. (FIG. 5B) Lysates prepared from JAR cells treated with EGF or AIM-100 were subjected to immunoblotting with indicated antibodies. (FIG. 5C) Total RNA was prepared from JAR cells untreated or treated with EGF ligand followed by quantitative RT-PCR using SLC6A4 and actin primers. The ratio of SLC6A4 to actin is shown. (FIG. 5D) JAR cells were treated with EGF ligand and ChIP was performed using pY99-H3 antibodies followed by quantitative PCR using primers corresponding to intron 2 (VNTR).
(§2) JAR cells are human placenta-derived epithelial cells that express SLC6A4 or SERT. Applicant first assessed presence of ACK1 signaling in JAR cells by treating these cells with EGF ligand. […] ACK1 activation was also reflected in histone H3 Tyr99-phosphorylation (FIG. SA, 2nd panel).
To validate critical role of ACK1 in histone H3 Tyr99-phosphoryation, JAR cells were treated with EGF or EGF+AIM-100.

[2] = system: histone H3 Tyr99-phosphorylation (ACK1); assay: Histone H3 Tyr99-phosphorylation in HEK293 cells (pY99-H3 immunoprecipitation / H3 immunoblot); format: cell-based; conditions: HEK293 cells treated with EGF ligand
Method: FIGS. 3A-3E show Ack1 phosphoryltes H3 at Tyr99 residue. […] (FIG. 3B) HEK293 cells co-expressing Myc-tagged Ack1 (WT) or KD mutant ACK1 and FLAG-tagged H3 or Y99F mutant […] were serum-starved (24h) and lysates were immunoprecipitated with pY99-H3 antibodies followed by immunoblotting with FLAG antibody (top panel). (FIG. 3C) HEK293 cells were treated with EGF ligand for indicated time points. Equal amounts of lysates were immunoprecipitated pY99-H3 antibodies followed by with immunoblotting with H3 antibody (top panel). (FIG. 3D) HEK293 cells were treated with ACK1 inhibitor, AIM-100 (5 uM overnight) and/or EGF ligand 20 min. Equal amounts of lysates were immunoprecipitated pY99-H3 antibodies followed by with immunoblotting with H3 antibody (top panel). […] (FIG. 3E) HEK293 cells were treated with increasing concentrations of AIM-100 (1, 2, 3 and 5 μM). Equal amounts of lysates were immunoprecipitated pY99-H3 antibodies followed by with immunoblotting with H3 antibody (top panel).
The Tyrosine99 or Y99 site in H3 protein is evolutionarily conserved (FIG. 3A). To examine whether H3 is ACK1 kinase substrate, HEK293 cells were co-transfected with HA-tagged ACK1 and FLAG-tagged H3 or FLAG-tagged Y99F mutant H3 expressing constructs. ACK I specifically phosphorylated H3 protein, but not the Y99F mutant protein (FIG. 3B). […]

ACK1 = ACK1 activation (phosphorylation) in JAR cells, immunoblotting; format: cell-based, human; conditions: 10 min of treatment
Method: as §1, §2

[3] = system: pY99-H3 marks at SLC6A4 promoter (5-HTTLPR) and intron 2 (VNTR); assay: ChIP with pY99-H3 antibodies and real time PCR at SLC6A4 gene in JAR cells; format: cell-based, human; conditions: EGF treatment
Method: as §1
Applicant hypothesized that ACK1 deposits pY99-H3 epigenetic marks in promoter (5-HTTLPR) and intron 2 (VNTR) of SLC6A4 gene to regulate its transcription. To test this hypothesis, applicant performed chromatin immunoprecipitation (ChIP) with pY99-H3 antibodies followed by real time PCR for primers corresponding to promoter (5-HTTLPR) and intron 2 (VNTR) of SLC6A4 gene.

SLC6A4 mRNA = SLC6A4 mRNA expression (real time RT-PCR); format: cell-based, human; conditions: JAR cells treated with EGF ligand
Method: The ratio of SLC6A4 to actin is shown. (FIG. 5D) JAR cells were treated with EGF ligand and ChIP was performed using pY99-H3 antibodies followed by quantitative PCR using primers corresponding to intron 2 (VNTR). […]
Applicant also identified for the first time that human and mouse serotonin transporter (SLC6A4 or SERT or 5-HTT) gene expression is regulated by ACK1. A novel mechanism was identified that is operational in SLC6A4 gene regulation. ACK1 deposits pY99-H3 epigenetic marks in promoter (5-HTTLPR) and intron 2 (VNTR) of SLC6A4 gene to regulate its transcription. […] Without being bound by theory, applicant believes that expression of Gabra6, Slc6a2, Slc6a4, Slc6a5 and Oxt genes as well as genes shown in Table 2 are also regulated by ACK1/pY99-H3 epigenetic activity/signaling.

B1: EGF: EGF ligand used to activate ACK1 (protein, UniProt P01133 23-1207, looked up)
Pro-epidermal growth factor: PQHWSCPEGTLAGNGNSTCVGPAPFLIFSHGNSIFRIDTEGTNYEQLVVDAGVSVIMDFHYNEKRIYWVDLERQLLQRVFLNGSRQERVCNIEKNVSGMAINWINEEVIWSNQQEGIITVTDMKGNNSHILLSALKYPANVAVDPVERFIFWSSEVAGSLYRADLDGVGVKALLETSEKITAVSLDVLDKRLFWIQYNREGSNSLICSCDYDGGSVHISKHPTQHNLFAMSLFGDRIFYSTWKMKTIWIANKHTGKDMVRINLHSSFVPLGELKVVHPLAQPKAEDDTWEPEQKLCKLRKGNCSSTVCGQDLQSHLCMCAEGYALSRDRKYCEDVNECAFWNHGCTLGCKNTPGSYYCTCPVGFVLLPDGKRCHQLVSCPRNVSECSHDCVLTSEGPLCFCPEGSVLERDGKTCSGCSSPDNGGCSQLCVPLSPVSWECDCFPGYDLQLDEKSCAASGPQPFLLFANSQDIRHMHFDGTDYGTLLSQQMGMVYALDHDPVENKIYFAHTALKWIERANMDGSQRERLIEEGVDVPEGLAVDWIGRRFYWTDRGKSLIGRSDLNGKRSKIITKENISQPRGIAVHPMAKRLFWTDTGINPRIESSSLQGLGRLVIASSDLIWPSGITIDFLTDKLYWCDAKQSVIEMANLDGSKRRRLTQNDVGHPFAVAVFEDYVWFSDWAMPSVMRVNKRTGKDRVRLQGSMLKPSSLVVVHPLAKPGADPCLYQNGGCEHICKKRLGTAWCSCREGFMKASDGKTCLALDGHQLLAGGEVDLKNQVTPLDILSKTRVSEDNITESQHMLVAEIMVSDQDDCAPVGCSMYARCISEGEDATCQCLKGFAGDGKLCSDIDECEMGVPVCPPASSKCINTEGGYVCRCSEGYQGDGIHCLDIDECQLGEHSCGENASCTNTEGGYTCMCAGRLSEPGLICPDSTPPPHLREDDHHYSVRNSDSECPLSHDGYCLHDGVCMYIEALDKYACNCVVGYIGERCQYRDLKWWELRHAGHGQQQKVIVVAVCVVVLVMLLLLSLWGAHYYRTQKLLSKNPKNPYEESSRDVRSRRPADTEDGMSSCPQPWFVVIKEHQDLKNGGQPVAGEDGQAADGSMQPTSWRQEPQLCGMGTEQGCWIPVSSDKGSCPQVMERSFHMPSYGTQTLEGGVEKPHSLLSANPLWQQRALDPPHQMELTQ
modifications: Pro-epidermal growth factor
histone H3 Tyr99-phosphorylation [1]: significant upregulation of histone H3 Tyr99-phosphoryation | endogenous H3 Tyr99-phosphorylation [2]: significant upregulation in endogenous H3 Tyr99-phosphorylation | ACK1 activation (phosphorylation) (ACK1): robust ACK1 activation | deposition of pY99-H3 marks at promoter (5-HTTLPR) and intron 2 (VNTR) of SLC6A4 gene [3]: significant increase in deposition of pY99-H3 marks | SLC6A4 mRNA levels (SLC6A4 mRNA): significant increase in SLC64A mRNA levels
